Common to all, as to test: two-hybrid library CCmax;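 note: natural log of median RNA to DNA barcode read ratio; higher means stronger binding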
One test has as its target T1, 4H1146-AA.
T1 chain: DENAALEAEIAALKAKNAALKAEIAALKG
As to conditions: mean of both orientations.

The next test has as its target T2, 4H2991-AA.
T2 chain: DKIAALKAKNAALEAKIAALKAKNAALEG
Conditions: mean of both orientations.

A further test has as its target T3, 4H2248-AA.
T3 chain: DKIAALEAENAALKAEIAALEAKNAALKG
Conditions: mean of both orientations.

A further test deals with T4, 4H478-AA.
T4 chain: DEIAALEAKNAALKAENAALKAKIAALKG
As to conditions: mean of both orientations.

Another test has as its target T5, 4H2713-AA.
T5 chain: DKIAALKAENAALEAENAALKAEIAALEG
As to conditions: mean of both orientations.

A further test deals with T6, 4H1391-AA.
T6 chain: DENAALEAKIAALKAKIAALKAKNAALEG
As to conditions: mean of both orientations.

The target of the next test is T7, 4H1809-AA.
T7 chain: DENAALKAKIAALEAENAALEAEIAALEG
Conditions: mean of both orientations.

For the next test, the target named is T8, 4H3449-AA.
T8 chain: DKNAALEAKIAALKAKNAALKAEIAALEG
Conditions: mean of both orientations.

The next test deals with T9, 4H2760-AA.
T9 chain: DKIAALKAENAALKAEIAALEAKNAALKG
Conditions: mean of both orientations.

A further test concerns the target T10, P6-AA-1HAA-V.
T10 chain: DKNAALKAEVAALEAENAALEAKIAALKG
Conditions: mean of both orientations.

In the next test the target is T11, P6-AA-1HGe-D.
T11 chain: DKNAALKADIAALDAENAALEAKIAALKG
As to conditions: mean of both orientations.

In another test the target is T12, P6-AA-1HAA-Y.
T12 chain: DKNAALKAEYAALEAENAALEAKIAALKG
As to conditions: mean of both orientations.

Another test addresses T13, P6-AA-1HAA-D.
T13 chain: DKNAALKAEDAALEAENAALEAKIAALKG
As to conditions: mean of both orientations.

The next test concerns the target T14, P6-AA-1HGe-S.
T14 chain: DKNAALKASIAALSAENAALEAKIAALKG
Conditions: mean of both orientations.

Another test concerns the target T15, P6-AA-1HGe-M.
T15 chain: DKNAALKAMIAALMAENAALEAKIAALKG

In another test the target is T16, 4H4033-AA.
T16 chain: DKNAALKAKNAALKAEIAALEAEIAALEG
As to conditions: mean of both orientations.

Another test deals with T17, 4H2614-AA.
T17 chain: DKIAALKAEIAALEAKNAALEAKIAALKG
As to conditions: mean of both orientations.

The target of another test is T18, 4H3605-AA.
T18 chain: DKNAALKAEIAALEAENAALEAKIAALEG
Conditions: mean of both orientations.

The target in a further test is T19, 4H2608-AA.
T19 chain: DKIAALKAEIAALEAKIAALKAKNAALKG
Conditions: mean of both orientations.

The next test deals with T20, 4H2687-AA.
T20 chain: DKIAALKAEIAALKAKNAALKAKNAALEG
As to conditions: mean of both orientations.

The target in a further test is T21, 4H3940-AA.
T21 chain: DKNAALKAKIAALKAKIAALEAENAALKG
Conditions: mean of both orientations.

The next test addresses T22, 4H2187-AA.
T22 chain: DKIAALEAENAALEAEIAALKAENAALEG
As to conditions: mean of both orientations.

Another test has as its target T23, 4H278-AA.
T23 chain: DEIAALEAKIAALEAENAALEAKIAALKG
Conditions: mean of both orientations.

The target of a further test is T24, 4H2211-AA.
T24 chain: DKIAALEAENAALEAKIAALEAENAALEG
Conditions: mean of both orientations.

Another test has as its target T25, 4H1350-AA.
T25 chain: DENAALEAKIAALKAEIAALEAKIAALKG

The target in a further test is T26, 4H1710-AA.
T26 chain: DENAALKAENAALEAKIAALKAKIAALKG
Conditions: mean of both orientations.

The next test deals with T27, 4H3134-AA.
T27 chain: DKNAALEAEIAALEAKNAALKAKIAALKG
Conditions: mean of both orientations.

The next test deals with T28, P5-AA-1HAA-R.
T28 chain: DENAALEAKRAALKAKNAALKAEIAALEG
Conditions: mean of both orientations.

The target in the next test is T29, P5-AA-12HGe-T.
T29 chain: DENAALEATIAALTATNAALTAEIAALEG
As to conditions: mean of both orientations.

The next test addresses T30, P5-AA-1HAA-S.
T30 chain: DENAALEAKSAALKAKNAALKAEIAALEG
As to conditions: mean of both orientations.

A further test has as its target T31, 4H465-AA.
T31 chain: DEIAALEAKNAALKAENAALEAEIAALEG
Conditions: mean of both orientations.

For a further test, the target named is T32, 4H535-AA.
T32 chain: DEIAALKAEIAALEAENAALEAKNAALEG
As to conditions: mean of both orientations.

For another test, the target named is T33, Core_NNII-es_KKKK.
T33 chain: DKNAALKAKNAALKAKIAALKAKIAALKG
Conditions: mean of both orientations.

In the next test the target is T34, 4H1738-AA.
T34 chain: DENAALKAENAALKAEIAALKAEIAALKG
As to conditions: mean of both orientations.

The next test deals with T35, 4H807-AA.
T35 chain: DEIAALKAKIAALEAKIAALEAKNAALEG
As to conditions: mean of both orientations.

The next test deals with T36, APC4264-AA.
T36 chain: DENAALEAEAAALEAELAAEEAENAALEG
As to conditions: mean of both orientations.

In the next test the target is T37, APC232-AA.
T37 chain: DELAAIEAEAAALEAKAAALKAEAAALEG
As to conditions: mean of both orientations.

The target of the next test is T38, 4H3330-AA.
T38 chain: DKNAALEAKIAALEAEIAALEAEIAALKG
As to conditions: mean of both orientations.

For a further test, the target named is T39, 4H2143-AA.
T39 chain: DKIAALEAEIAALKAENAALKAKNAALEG
As to conditions: mean of both orientations.

Another test deals with T40, APC2237-AA.
T40 chain: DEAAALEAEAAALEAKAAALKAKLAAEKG
Conditions: mean of both orientations.

The target in the next test is T41, APC3645-AA.
T41 chain: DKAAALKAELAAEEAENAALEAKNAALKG

Another test addresses T42, O2-AA.
T42 chain: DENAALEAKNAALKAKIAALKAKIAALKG
As to conditions: mean of both orientations.

B1: 4H1064-AA (peptide)
chain: DENAALEAEIAALEAKIAALEAKNAALKG
On to B1, for which the interaction score is -0.282 with 4H1146-AA; -0.846 in the test with 4H2991-AA; -1.34 with 4H2248-AA; -1.56 in the test with 4H478-AA; -1.48 with 4H2713-AA; 1.33 with 4H1391-AA. This molecule also came in with an interaction score with 4H1809-AA of -1.44.

B2: 4H249-AA (peptide)
chain: DEIAALEAENAALKAKNAALKAEIAALEG
In the case of B2, the interaction score was -1.43 with 4H3449-AA and 1.68 with 4H2760-AA.

B3: 4H1401-AA (peptide)
chain: DENAALEAKIAALKAKNAALKAEIAALEG
Turning to B3, the interaction score with P6-AA-1HAA-V is 2.18; with P6-AA-1HGe-D it was 1.88; with P6-AA-1HAA-Y, 2.37; with P6-AA-1HAA-D it was 0.667; with P6-AA-1HGe-S, 2.27; with P6-AA-1HGe-M, 2.24.

B4: 4H1350-AA (peptide)
chain: DENAALEAKIAALKAEIAALEAKIAALKG
Take B4: the interaction score in the test with 4H4033-AA was -0.0842; in the test with 4H2614-AA, -0.142; in the test with 4H3605-AA it was -0.433; with 4H2608-AA, 1.38; with 4H2687-AA, -0.889; with 4H3940-AA, -0.283. Also, the interaction score is -1.97 with 4H2187-AA; 0.443 with 4H278-AA; -1.32 with 4H2211-AA; 2.09 with 4H1350-AA; 0.556 with 4H1710-AA; 0.186 with 4H3134-AA.

B5: 4H3606-AA (peptide)
chain: DKNAALKAEIAALEAENAALEAKIAALKG
For the molecule B5, the values for the interaction score with P5-AA-1HAA-R, with P5-AA-12HGe-T and in the test with P5-AA-1HAA-S were 2, 1.23 and 1.63, respectively.

B6: 4H1257-AA (peptide)
chain: DENAALEAENAALKAKIAALKAEIAALEG
Regarding B6, the interaction score with 4H465-AA is -0.726; in the test with 4H535-AA, -1.14.

B7: 4H1153-AA (peptide)
chain: DENAALEAENAALEAEIAALEAEIAALEG
For the molecule B7, the interaction score with Core_NNII-es_KKKK worked out at 1.83.

B8: 4H1626-AA (peptide)
chain: DENAALKAEIAALKAENAALKAEIAALKG
Molecule B8 had an interaction score in the test with 4H1738-AA of -0.841.

B9: 4H1845-AA (peptide)
chain: DENAALKAKIAALEAKNAALEAKIAALEG
As for B9, the interaction score was -1.58 in the test with 4H807-AA; -1.79 in the test with APC4264-AA; -2.09 in the test with APC232-AA; -1.3 with 4H3330-AA; -1.68 with 4H2143-AA; -1.46 in the test with APC2237-AA. Also, in the test with APC3645-AA, the interaction score was -1.23.

B10: 4H171-AA (peptide)
chain: DEIAALEAENAALEAKIAALKAENAALEG
In turn, B10 had an interaction score with O2-AA of -1.24.

These data come from publication PMC10397247.
